± gives the standard deviation of the averaged measurements.
Assay: total protein half-life in vivo (active degradation + dilution); higher = more stable protein
[1] = E. coli NCM3722 delta-clpP delta-lon delta-hslV, growth: N-lim chemostat, doubling time 6 h
[2] = E. coli NCM3722 delta-clpP, growth: N-lim chemostat, doubling time 6 h
[3] = E. coli NCM3722 delta-lon, growth: N-lim chemostat, doubling time 6 h
[4] = E. coli NCM3722 delta-smpB, growth: N-lim chemostat, doubling time 6 h
[5] = wild type E. coli NCM3722, growth: C-lim chemostat, doubling time 3 h
[6] = wild type E. coli NCM3722, growth: C-lim chemostat, doubling time 6 h
[7] = wild type E. coli NCM3722, growth: C-lim chemostat, doubling time 12 h
[8] = wild type E. coli NCM3722, growth: N-lim chemostat, doubling time 6 h
[9] = wild type E. coli NCM3722, growth: N-lim chemostat, doubling time 12 h
[10] = wild type E. coli NCM3722, growth: P-lim chemostat, doubling time 6 h
[11] = wild type E. coli NCM3722, growth: P-lim chemostat, doubling time 12 h
[12] = E. coli NCM3722 delta-hslV, growth: N-lim chemostat, doubling time 6 h

Sequence | total protein half-life in vivo [1] [h] | total protein half-life in vivo [2] [h] | total protein half-life in vivo [3] [h] | total protein half-life in vivo [4] [h] | total protein half-life in vivo [5] [h] | total protein half-life in vivo [6] [h] | total protein half-life in vivo [7] [h] | total protein half-life in vivo [8] [h] | total protein half-life in vivo [9] [h] | total protein half-life in vivo [10] [h] | total protein half-life in vivo [11] [h] | total protein half-life in vivo [12] [h]
MKMIEVVAAIIERDGKILLAQRPAQSDQAGLWEFAGGKVEPDESQRQALVRELREELGIEATVGEYVASHQREVSGRIIHLHAWHVPDFHGTLQAHEHQALVWCSPEEALQYPLAPADIPLLEAFMALRAARPAD | 4.73 | 4.63 | 5.61 | 4.07 | 3.25 | 4.61 ± 0.59 | 8.63 | 3.82 | 6.31 ± 0.54 | 4.59 | 8.52 ± 0.99 | 
MHEITLCQRALELIEQQAAKHGAKRVTGVWLKIGAFSCVETSSLAFCFDLVCRGSVAEGCKLHLEEQEAECWCETCQQYVTLLTQRVRRCPQCHGDMLQIVADDGLQIRRIEIDQE [P0A700] | 4.63 | 2.12 |  | 1.76 |  |  | 11.3 | 2.36 | 2.23 |  |  | 
MKKYQQLAEQLREQIASGIWQPGDRLPSLRDQVALSGMSFMTVSHAYQLLESQGYIIARPQSGYYVAPQAIKMPKAPVIPVTRDEAVDINTYIFDMLQASRDPSVVPFASAFPDPRLFPLQQLNRSLAQVSKTATAMSVIENLPPGNAELRQAIARRYALQGITISPDEIVITAGALEALNLSLQAVTEPGDWVIVENPCFYGALQALERLRLKALSVATDVKEGIDLQALELALQEYPVKACWLMTNSQNPLGFTLTPQKKAQLVALLNQYNVTLIEDDVYSELYFGREKPLPAKAWDRHDGVLHCSSFSKCLVPGFRIGWVAAGKHARKIQRLQLMSTLSTSSPMQLALVDYLSTRRYDAHLRRLRRQLAERKQRAWQALLRYLPAEVKIHHNDSGYFLWLELPEPLDAGELSLAALTHHISIAPGKMFSTGENWSRFFRFNTAWQWGEREEQAVKQLGKLIQERL | 5.76 ± 0.15 | 6.15 ± 0.15 | 6.09 ± 0.51 | 5.54 ± 0.38 | 3.02 ± 0.075 | 5.42 ± 0.59 | 10.5 ± 0.68 | 5.45 ± 0.55 | 13.1 ± 2.8 | 6.52 ± 0.27 | 14.3 ± 2.1 | 6.01 ± 0.29
MKQYLIAPSILSADFARLGEDTAKALAAGADVVHFDVMDNHYVPNLTIGPMVLKSLRNYGITAPIDVHLMVKPVDRIVPDFAAAGASIITFHPEASEHVDRTLQLIKENGCKAGLVFNPATPLSYLDYVMDKLDVILLMSVNPGFGGQSFIPQTLDKLREVRRRIDESGFDIRLEVDGGVKVNNIGEIAAAGADMFVAGSAIFDQPDYKKVIDEMRSELAKVSHE [P0AG07] | 5.23 ± 0.28 | 4.58 ± 0.58 | 4.69 ± 0.12 | 4.27 ± 0.7 | 3.2 ± 0.21 | 5.43 ± 0.99 | 11.4 ± 0.82 | 4.84 ± 0.16 | 7.52 ± 0.15 | 5.72 ± 0.56 | 12 ± 0.16 | 5.6 ± 1.7
MIVRILLLFIALFTFGVQAQAIKESYAFAVLGEPRYAFNFNHFDYVNPAAPKGGQITLSALGTFDNFNRYALRGNPGARTEQLYDTLFTTSDDEPGSYYPLIAESARYADDYSWVEVAINPRARFHDGSPITARDVEFTFQKFMTEGVPQFRLVYKGTTVKAIAPLTVRIELAKPGKEDMLSLFSLPVFPEKYWKDHKLSDPLATPPLASGPYRVTSWKMGQNIVYSRVKDYWAANLPVNRGRWNFDTIRYDYYLDDNVAFEAFKAGAFDLRMENDAKNWATRYTGKNFDKKYIIKDEQKNESAQDTRWLAFNIQRPVFSDRRVREAITLAFDFEWMNKALFYNAWSRTNSYFQNTEYAARNYPDAAELVLLAPMKKDLPSEVFTQIYQPPVSKGDGYDRDNLLKADKLLNEAGWVLKGQQRVNATTGQPLSFELLLPASSNSQWVLPFQHSLQRLGINMDIRKVDNSQITNRMRSRDYDMMPRVWRAMPWPSSDLQISWSSEYINSTYNAPGVQSPVIDSLINQIIAAQGNKEKLLPLGRALDRVLTWNYYMLPMWYMAEDRLAWWDKFSQPAVRPIYSLGIDTWWYDVNKAAKLPSASKQGE | 6.04 ± 0.17 | 6.38 ± 1.6 |  | 5.92 ± 0.24 | 3.0824 ± 5.7e-05 | 6.076 ± 0.038 | 13.3 ± 2.8 | 6.19 ± 0.39 | 12.8 ± 0.89 | 6.46 ± 0.14 | 12 ± 1.5 | 5.79 ± 0.79

From the supplement of paper PMC11246515
